Measurements taken from PMC11215335 (The Journal of Biological Chemistry, 2024).

Assays:
Test in all cases: ELISA; polyreactivity assay, second experiment (Fig. 3D): antigen coated at constant concentration (proteins 5 ug/ml, bicarbonate buffer pH 9.6); mAb, Fab or scFv serially diluted two-fold from 34 nM Fv; 1 h at 37 C; alkaline phosphatase-conjugated secondary antibody; 'saturating Ag conditions'
Details in all cases: both partners purified
actin = actin (Bos taurus (muscle actin, assumed from …, UniProt P68138))
thyroglobulin = target: T1, thyroglobulin (Bos taurus (assumed from catalogue item …, UniProt P01267))
T1 construct: thyroglobulin, Sigma T1001; As I recall, this catalogue item is thyroglobulin from bovine thyroid; source: bought: Sigma (T1001)

tubulin = target: T2, tubulin (Sus scrofa (brain tubulin, assumed from …, UniProt P02550;P02554))
T2 construct: tubulin alpha chain; Cytoskeleton T240-A; tubulin beta chain; As I recall, this catalogue item is tubulin purified from porcine brain (a mix of isotypes); source: bought: Cytoskeleton, Inc (T240-A)

Measured: binding result

T2 sequence (P02554 whole entry, looked up, chain 1 of 2): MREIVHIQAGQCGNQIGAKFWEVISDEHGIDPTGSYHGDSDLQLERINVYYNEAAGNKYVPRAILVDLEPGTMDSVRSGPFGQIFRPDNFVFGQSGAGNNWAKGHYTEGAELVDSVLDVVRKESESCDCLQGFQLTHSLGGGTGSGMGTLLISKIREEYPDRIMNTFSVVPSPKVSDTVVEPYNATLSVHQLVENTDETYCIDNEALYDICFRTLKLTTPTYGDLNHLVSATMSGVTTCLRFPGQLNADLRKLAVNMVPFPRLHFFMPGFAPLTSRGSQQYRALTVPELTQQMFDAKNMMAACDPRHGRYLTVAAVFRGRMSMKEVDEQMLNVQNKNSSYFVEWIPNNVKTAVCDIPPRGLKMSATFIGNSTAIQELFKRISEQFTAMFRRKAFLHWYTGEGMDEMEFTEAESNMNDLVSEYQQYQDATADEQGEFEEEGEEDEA
T2 sequence (P02550 whole entry, looked up, chain 2 of 2): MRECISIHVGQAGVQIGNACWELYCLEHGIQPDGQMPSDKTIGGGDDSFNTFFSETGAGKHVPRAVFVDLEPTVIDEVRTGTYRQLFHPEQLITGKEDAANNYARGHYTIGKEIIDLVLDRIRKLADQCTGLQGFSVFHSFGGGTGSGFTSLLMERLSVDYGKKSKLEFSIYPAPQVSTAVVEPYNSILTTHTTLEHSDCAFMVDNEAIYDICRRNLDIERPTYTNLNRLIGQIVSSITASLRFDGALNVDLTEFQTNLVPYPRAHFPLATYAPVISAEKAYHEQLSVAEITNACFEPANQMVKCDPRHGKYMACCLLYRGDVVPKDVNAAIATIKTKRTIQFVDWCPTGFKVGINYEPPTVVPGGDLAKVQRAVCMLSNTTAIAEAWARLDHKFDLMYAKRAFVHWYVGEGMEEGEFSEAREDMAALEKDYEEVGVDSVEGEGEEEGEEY
T1 sequence (P01267 20-2769): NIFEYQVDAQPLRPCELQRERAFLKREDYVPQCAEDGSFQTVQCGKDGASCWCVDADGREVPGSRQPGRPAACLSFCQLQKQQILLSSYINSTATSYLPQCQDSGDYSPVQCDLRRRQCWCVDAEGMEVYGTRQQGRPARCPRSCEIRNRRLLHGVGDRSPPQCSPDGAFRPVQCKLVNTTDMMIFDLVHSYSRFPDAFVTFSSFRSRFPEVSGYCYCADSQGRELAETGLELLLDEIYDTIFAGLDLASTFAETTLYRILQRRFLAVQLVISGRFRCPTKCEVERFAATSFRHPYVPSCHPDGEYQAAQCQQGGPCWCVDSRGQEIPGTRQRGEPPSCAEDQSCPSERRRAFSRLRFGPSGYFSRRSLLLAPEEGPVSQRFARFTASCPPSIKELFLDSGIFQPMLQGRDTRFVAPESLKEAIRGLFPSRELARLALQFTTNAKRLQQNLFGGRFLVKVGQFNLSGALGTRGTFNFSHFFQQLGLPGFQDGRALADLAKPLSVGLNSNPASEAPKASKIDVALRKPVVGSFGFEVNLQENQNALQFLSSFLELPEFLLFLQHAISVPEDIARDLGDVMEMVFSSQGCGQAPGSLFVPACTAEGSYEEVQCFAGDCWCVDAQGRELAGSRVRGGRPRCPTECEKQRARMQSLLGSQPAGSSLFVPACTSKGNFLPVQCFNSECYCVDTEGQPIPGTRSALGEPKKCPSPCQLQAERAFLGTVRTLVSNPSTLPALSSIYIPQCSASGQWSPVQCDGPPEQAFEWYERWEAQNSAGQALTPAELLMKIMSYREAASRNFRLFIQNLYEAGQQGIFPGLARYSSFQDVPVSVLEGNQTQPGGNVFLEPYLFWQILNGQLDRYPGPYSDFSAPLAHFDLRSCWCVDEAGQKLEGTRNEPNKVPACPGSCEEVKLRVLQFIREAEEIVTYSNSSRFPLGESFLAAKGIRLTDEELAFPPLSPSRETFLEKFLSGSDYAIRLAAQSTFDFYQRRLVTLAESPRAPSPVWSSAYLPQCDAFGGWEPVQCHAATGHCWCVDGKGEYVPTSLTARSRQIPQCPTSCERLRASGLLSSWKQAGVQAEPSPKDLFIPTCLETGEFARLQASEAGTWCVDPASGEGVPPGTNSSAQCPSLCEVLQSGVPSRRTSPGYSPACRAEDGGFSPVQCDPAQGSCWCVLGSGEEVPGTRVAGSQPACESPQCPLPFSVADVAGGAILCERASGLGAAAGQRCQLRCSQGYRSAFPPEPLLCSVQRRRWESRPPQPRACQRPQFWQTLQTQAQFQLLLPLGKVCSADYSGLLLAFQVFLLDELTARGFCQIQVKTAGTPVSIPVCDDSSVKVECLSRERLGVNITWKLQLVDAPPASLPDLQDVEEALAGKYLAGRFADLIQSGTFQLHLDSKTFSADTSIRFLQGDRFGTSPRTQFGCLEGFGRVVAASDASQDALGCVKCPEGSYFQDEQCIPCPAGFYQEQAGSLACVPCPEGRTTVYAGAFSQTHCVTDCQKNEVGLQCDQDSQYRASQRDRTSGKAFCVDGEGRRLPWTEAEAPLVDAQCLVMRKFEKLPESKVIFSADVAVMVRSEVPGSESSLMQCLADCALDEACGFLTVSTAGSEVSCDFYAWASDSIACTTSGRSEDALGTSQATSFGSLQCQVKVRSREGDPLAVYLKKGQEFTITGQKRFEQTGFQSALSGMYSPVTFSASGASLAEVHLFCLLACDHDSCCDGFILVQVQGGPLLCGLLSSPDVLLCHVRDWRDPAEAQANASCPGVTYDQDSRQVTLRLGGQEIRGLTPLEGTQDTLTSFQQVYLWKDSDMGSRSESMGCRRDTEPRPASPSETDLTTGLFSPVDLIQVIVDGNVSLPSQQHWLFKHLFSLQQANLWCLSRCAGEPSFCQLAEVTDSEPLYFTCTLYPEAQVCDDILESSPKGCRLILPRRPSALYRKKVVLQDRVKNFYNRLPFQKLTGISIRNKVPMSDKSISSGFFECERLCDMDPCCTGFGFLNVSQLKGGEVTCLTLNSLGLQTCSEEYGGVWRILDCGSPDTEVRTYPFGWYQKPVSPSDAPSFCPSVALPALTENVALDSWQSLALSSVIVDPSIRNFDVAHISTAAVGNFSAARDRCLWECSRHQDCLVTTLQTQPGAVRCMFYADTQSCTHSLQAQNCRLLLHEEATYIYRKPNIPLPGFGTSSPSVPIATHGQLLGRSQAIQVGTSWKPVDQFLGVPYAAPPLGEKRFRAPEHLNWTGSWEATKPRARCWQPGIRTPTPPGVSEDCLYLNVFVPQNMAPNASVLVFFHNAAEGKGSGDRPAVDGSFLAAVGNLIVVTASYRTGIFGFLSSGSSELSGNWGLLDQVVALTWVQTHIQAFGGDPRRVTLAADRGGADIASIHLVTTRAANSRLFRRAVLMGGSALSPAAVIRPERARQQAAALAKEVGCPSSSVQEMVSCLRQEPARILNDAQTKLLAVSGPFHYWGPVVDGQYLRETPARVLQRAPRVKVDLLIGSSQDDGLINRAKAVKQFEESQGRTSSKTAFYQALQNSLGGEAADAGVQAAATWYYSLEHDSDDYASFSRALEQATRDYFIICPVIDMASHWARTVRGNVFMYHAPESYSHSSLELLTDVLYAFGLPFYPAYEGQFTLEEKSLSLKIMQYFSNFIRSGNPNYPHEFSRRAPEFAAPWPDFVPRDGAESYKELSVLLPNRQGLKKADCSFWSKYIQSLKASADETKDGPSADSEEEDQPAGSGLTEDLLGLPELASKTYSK

B1: single-chain Fv antibody fragment 18B7 (scFv, V domains shown)
VH: DVKLVESGGGLVKLGGSLKLSCVASGFTCSSYFMSWVRQTPEKRLELVAMINNNGDKTYYPDTVKGRFTISRDNAKNTLYLQMSSLKSEDTAMYYCARRDGTFGNHFDYWGQGTTLTVSS
VL: DVVMTQTPLSLPVSAGDQASISCRSSQSLCHSNGNTYLHWYLQKPGQSPKLLIYKVSNRFSGVPDKFSGSGSGTDFTLKISRVEAEDLGVYFCSQSTHVPWTFGGGTKLEIK
notes: VL of mAb 18B7; 15-residue linker, printed as (GGS)5 in the methods; the results call it (Gly4Ser)3; VH of mAb 18B7; A pelB leader was appended to the N-terminus; The tandem FLAG and His6 tags are at the C-terminus; also called scFv 18B7; scFv; source: E. coli BL21 STAR (pET22b+); also soluble in the periplasm; not shown: His6, C-terminal, kept
binds: all assays above
